Assay results published in patent US20180155451A1 (published 2018).

T1: FcγRIIa R (human, UniProt P12318 34-217)
T1 construct: extracellular domain; also called FcgRIIa R type; 2aR
T1 sequence (looked up): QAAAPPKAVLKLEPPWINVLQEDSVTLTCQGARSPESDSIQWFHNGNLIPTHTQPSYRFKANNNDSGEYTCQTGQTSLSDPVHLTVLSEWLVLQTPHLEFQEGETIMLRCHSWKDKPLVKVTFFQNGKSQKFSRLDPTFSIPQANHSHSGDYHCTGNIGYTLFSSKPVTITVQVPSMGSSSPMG

B1: GpH7-B3 variant H268_01G/GpL16-k0 (antibody, human IgG1, kappa)
heavy: not shown
light: DIVMTQSPLSLPVTPGEPASISCQASESLVHSNRNTYLHWYLQKPGQSPQLLIYKVSNRFSGVPDRFSGSGSGTDFTLKISRVEAEDVGVYYCSQNTHVPPTFGQGTKVEIERTVAAPSVFIFPPSDEQLKSGTASVVCLLNNFYPREAKVQWKVDNALQSGNSQESVTEQDSKDSTYSLSSTLTLSKADYEKHKVYACEVTHQGLSSPVTKSFNRGEC
notes: also called Ho Ab H268_01G
B2: GpH7-B3 variant L234_04F/GpL16-k0 (antibody, human IgG1, kappa)
heavy: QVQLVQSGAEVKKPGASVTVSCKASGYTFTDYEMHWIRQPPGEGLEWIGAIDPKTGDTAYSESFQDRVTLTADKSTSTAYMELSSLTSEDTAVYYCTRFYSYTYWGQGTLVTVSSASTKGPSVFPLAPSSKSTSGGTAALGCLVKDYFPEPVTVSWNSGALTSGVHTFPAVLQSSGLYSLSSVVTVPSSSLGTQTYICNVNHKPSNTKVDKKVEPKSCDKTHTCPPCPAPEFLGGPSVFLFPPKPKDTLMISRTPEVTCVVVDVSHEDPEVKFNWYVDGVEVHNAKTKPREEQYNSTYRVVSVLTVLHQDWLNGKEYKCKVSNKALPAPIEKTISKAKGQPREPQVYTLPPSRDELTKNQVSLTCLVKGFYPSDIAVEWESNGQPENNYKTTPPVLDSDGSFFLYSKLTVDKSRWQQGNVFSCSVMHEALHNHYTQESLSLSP
light: B1 light
notes: also called Ho Ab L234_04F
B3: GpH7-B3 variant L328_09D/GpL16-k0 (antibody, human IgG1, kappa)
heavy: not shown
light: B1 light
notes: also called Ho Ab L328_09D
B4: GpH7-B3 variant L234_09D/GpL16-k0 (antibody, human IgG1, kappa)
heavy: not shown
light: B1 light
notes: also called Ho Ab L234_09D
B5: GpH7-B3 variant H268_05P/GpL16-k0 (antibody, human IgG1, kappa)
heavy: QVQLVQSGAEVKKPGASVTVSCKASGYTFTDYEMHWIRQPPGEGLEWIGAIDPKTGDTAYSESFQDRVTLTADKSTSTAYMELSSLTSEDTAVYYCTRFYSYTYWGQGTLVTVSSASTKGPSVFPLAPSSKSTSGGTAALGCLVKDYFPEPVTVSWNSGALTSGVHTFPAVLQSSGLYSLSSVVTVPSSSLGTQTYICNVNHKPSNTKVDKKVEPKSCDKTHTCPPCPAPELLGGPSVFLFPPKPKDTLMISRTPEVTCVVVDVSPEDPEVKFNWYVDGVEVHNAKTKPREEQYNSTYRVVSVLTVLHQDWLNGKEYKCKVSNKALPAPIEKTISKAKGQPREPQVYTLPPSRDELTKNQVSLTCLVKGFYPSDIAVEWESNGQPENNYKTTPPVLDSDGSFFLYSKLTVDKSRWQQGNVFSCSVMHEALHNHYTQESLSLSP
light: B1 light
notes: also called Ho Ab H268_05P
B6: GpH7-B3 variant L234_10E/GpL16-k0 (antibody, human IgG1, kappa)
heavy: not shown
light: B1 light
notes: also called Ho Ab L234_10E
B7: GpH7-B3 variant P238_09D/GpL16-k0 (antibody, human IgG1, kappa)
heavy: not shown
light: B1 light
notes: also called Ho Ab P238_09D
B8: GpH7-B3 variant N325_10E/GpL16-k0 (antibody, human IgG1, kappa)
heavy: not shown
light: B1 light
notes: also called Ho Ab N325_10E
B9: GpH7-B3 variant L235_20W/GpL16-k0 (antibody, human IgG1, kappa)
heavy: not shown
light: B1 light
notes: also called Ho Ab L235_20W
B10: GpH7-B3 variant K334_08L/GpL16-k0 (antibody, human IgG1, kappa)
heavy: not shown
light: B1 light
notes: also called Ho Ab K334_08L
B11: GpH7-B3 variant I332_06M/GpL16-k0 (antibody, human IgG1, kappa)
heavy: not shown
light: B1 light
notes: also called Ho Ab I332_06M
B12: GpH7-B3 variant K326_07I/GpL16-k0 (antibody, human IgG1, kappa)
heavy: not shown
light: B1 light
notes: also called Ho Ab K326_07I
B13: GpH7-B3 variant H268_20W/GpL16-k0 (antibody, human IgG1, kappa)
heavy: not shown
light: B1 light
notes: also called Ho Ab H268_20W
B14: GpH7-B3 variant N325_01G/GpL16-k0 (antibody, human IgG1, kappa)
heavy: not shown
light: B1 light
notes: also called Ho Ab N325_01G
B15: GpH7-B3 variant L328_13S/GpL16-k0 (antibody, human IgG1, kappa)
heavy: not shown
light: B1 light
notes: also called Ho Ab L328_13S
B16: GpH7-B3 variant N325_09D/GpL16-k0 (antibody, human IgG1, kappa)
heavy: not shown
light: B1 light
notes: also called Ho Ab N325_09D
B17: GpH7-B3 variant N325_07I/GpL16-k0 (antibody, human IgG1, kappa)
heavy: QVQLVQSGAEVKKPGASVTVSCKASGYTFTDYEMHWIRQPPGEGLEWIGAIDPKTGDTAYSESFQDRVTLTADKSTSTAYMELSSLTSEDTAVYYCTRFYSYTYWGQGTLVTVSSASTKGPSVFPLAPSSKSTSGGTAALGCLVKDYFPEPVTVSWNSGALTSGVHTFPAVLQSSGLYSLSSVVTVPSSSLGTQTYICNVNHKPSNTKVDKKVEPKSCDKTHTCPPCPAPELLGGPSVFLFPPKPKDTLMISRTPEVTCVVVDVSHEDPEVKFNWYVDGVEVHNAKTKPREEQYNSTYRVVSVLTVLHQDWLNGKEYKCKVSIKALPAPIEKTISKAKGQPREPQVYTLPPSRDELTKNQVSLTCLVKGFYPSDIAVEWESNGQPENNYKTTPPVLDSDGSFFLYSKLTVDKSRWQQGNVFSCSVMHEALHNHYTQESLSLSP
light: B1 light
notes: also called Ho Ab N325_07I
B18: GpH7-B3 variant H268_12R/GpL16-k0 (antibody, human IgG1, kappa)
heavy: not shown
light: B1 light
notes: also called Ho Ab H268_12R
B19: GpH7-B3 variant K326_15Y/GpL16-k0 (antibody, human IgG1, kappa)
heavy: not shown
light: B1 light
notes: also called Ho Ab K326_15Y
B20: GpH7-B3 variant P238_06M/GpL16-k0 (antibody, human IgG1, kappa)
heavy: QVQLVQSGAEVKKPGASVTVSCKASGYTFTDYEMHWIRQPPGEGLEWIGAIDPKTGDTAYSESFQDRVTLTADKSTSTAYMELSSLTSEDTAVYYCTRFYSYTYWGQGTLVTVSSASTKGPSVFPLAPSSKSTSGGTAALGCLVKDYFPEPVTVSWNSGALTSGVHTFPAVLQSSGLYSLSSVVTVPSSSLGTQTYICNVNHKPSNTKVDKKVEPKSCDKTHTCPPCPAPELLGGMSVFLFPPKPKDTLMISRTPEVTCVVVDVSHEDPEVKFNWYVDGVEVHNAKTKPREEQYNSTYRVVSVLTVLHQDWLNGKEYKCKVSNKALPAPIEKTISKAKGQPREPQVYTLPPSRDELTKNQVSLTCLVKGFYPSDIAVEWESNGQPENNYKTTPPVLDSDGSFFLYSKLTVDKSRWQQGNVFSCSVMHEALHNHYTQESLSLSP
light: B1 light
notes: also called Ho Ab P238_06M
B21: GpH7-B3 variant K326_18N/GpL16-k0 (antibody, human IgG1, kappa)
heavy: not shown
light: B1 light
notes: also called Ho Ab K326_18N
B22: GpH7-B3 variant K326_12R/GpL16-k0 (antibody, human IgG1, kappa)
heavy: not shown
light: B1 light
notes: also called Ho Ab K326_12R
B23: GpH7-B3 variant K334_12R/GpL16-k0 (antibody, human IgG1, kappa)
heavy: not shown
light: B1 light
notes: also called Ho Ab K334_12R
B24: GpH7-B3 variant H268_15Y/GpL16-k0 (antibody, human IgG1, kappa)
heavy: not shown
light: B1 light
notes: also called Ho Ab H268_15Y
B25: GpH7-B3 variant L235_15Y/GpL16-k0 (antibody, human IgG1, kappa)
heavy: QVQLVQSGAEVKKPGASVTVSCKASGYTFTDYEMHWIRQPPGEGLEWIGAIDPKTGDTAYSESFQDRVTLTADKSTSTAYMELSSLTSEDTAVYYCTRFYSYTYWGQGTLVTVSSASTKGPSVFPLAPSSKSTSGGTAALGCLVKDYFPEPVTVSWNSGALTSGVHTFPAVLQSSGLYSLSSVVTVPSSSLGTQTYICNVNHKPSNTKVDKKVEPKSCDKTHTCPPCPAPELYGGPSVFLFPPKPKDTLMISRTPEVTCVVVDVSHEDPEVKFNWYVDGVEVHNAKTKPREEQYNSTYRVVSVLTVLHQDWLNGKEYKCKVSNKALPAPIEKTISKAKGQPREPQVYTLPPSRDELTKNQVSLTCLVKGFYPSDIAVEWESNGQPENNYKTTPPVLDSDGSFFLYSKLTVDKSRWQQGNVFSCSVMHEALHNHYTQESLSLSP
light: B1 light
notes: also called Ho Ab L235_15Y
B26: GpH7-B3 variant H268_11K/GpL16-k0 (antibody, human IgG1, kappa)
heavy: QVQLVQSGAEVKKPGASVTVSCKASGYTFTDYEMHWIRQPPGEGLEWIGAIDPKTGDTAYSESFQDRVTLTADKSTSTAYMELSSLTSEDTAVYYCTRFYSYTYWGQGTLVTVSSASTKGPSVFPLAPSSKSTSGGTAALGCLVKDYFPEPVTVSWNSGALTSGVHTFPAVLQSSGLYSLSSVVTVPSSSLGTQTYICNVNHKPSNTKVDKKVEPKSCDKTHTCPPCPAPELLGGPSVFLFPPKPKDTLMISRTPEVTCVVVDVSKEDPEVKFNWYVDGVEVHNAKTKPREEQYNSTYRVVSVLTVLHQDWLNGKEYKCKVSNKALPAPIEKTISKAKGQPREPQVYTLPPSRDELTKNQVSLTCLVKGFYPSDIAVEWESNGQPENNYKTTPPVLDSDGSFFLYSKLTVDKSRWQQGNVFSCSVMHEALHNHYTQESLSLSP
light: B1 light
notes: also called Ho Ab H268_11K
B27: GpH7-B3 variant P238_04F/GpL16-k0 (antibody, human IgG1, kappa)
heavy: not shown
light: B1 light
notes: also called Ho Ab P238_04F
B28: GpH7-B3 variant N325_08L/GpL16-k0 (antibody, human IgG1, kappa)
heavy: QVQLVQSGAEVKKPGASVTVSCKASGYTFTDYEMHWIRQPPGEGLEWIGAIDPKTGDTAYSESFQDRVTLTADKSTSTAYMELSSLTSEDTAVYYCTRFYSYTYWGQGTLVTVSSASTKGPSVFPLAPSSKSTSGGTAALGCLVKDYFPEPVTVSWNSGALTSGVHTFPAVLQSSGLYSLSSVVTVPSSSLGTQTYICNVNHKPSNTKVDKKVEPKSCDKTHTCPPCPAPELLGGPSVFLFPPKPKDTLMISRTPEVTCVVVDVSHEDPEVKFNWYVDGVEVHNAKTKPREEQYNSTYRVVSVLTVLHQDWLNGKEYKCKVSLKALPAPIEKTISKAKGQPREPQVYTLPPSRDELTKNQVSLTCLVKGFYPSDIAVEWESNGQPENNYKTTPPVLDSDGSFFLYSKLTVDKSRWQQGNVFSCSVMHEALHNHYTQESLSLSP
light: B1 light
notes: also called Ho Ab N325_08L
B29: GpH7-B3 variant L328_02A/GpL16-k0 (antibody, human IgG1, kappa)
heavy: not shown
light: B1 light
notes: also called Ho Ab L328_02A
B30: GpH7-B3 variant K334_02A/GpL16-k0 (antibody, human IgG1, kappa)
heavy: not shown
light: B1 light
notes: also called Ho Ab K334_02A
B31: GpH7-B3 variant K334_05P/GpL16-k0 (antibody, human IgG1, kappa)
heavy: not shown
light: B1 light
notes: also called Ho Ab K334_05P
B32: GpH7-B3 variant L328_14T/GpL16-k0 (antibody, human IgG1, kappa)
heavy: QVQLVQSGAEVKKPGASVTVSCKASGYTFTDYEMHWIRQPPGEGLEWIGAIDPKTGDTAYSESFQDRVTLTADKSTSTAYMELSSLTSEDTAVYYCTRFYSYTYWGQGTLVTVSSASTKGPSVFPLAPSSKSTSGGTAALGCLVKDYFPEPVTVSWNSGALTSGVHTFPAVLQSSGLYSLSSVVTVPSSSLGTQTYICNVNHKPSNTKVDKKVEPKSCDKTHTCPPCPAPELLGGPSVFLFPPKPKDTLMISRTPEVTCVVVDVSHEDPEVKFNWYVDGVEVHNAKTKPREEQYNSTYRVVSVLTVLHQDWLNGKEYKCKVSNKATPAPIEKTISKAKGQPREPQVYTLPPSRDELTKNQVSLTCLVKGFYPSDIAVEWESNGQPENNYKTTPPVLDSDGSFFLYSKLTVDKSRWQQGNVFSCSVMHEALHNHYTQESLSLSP
light: B1 light
notes: also called Ho Ab L328_14T
B33: GpH7-B3 variant K326_03V/GpL16-k0 (antibody, human IgG1, kappa)
heavy: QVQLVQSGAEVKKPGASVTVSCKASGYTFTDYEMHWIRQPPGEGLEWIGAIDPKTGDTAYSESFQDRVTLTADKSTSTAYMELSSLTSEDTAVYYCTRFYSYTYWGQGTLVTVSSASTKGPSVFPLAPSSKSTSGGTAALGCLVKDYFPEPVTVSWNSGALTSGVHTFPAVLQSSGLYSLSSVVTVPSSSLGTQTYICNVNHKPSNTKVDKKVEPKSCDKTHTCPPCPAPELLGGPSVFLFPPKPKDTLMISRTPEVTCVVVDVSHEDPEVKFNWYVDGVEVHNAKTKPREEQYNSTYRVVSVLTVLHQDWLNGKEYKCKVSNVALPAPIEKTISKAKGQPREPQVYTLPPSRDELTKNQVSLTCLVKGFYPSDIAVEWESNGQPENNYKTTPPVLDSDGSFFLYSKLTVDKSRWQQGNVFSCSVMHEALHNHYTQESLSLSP
light: B1 light
notes: also called Ho Ab K326_03V
B34: GpH7-B3 variant K334_20W/GpL16-k0 (antibody, human IgG1, kappa)
heavy: not shown
light: B1 light
notes: also called Ho Ab K334_20W
B35: GpH7-B3 variant L328_10E/GpL16-k0 (antibody, human IgG1, kappa)
heavy: not shown
light: B1 light
notes: also called Ho Ab L328_10E
B36: GpH7-B3 variant P238_03V/GpL16-k0 (antibody, human IgG1, kappa)
heavy: not shown
light: B1 light
notes: also called Ho Ab P238_03V
B37: GpH7-B3 variant N325_15Y/GpL16-k0 (antibody, human IgG1, kappa)
heavy: not shown
light: B1 light
notes: also called Ho Ab N325_15Y
B38: GpH7-B3 variant K334_04F/GpL16-k0 (antibody, human IgG1, kappa)
heavy: not shown
light: B1 light
notes: also called Ho Ab K334_04F
B39: GpH7-B3 variant L235_04F/GpL16-k0 (antibody, human IgG1, kappa)
heavy: not shown
light: B1 light
notes: also called Ho Ab L235_04F
B40: GpH7-B3 variant L235_09D/GpL16-k0 (antibody, human IgG1, kappa)
heavy: not shown
light: B1 light
notes: also called Ho Ab L235_09D
B41: GpH7-B3 variant K326_20W/GpL16-k0 (antibody, human IgG1, kappa)
heavy: not shown
light: B1 light
notes: also called Ho Ab K326_20W
B42: GpH7-B3 variant L234_20W/GpL16-k0 (antibody, human IgG1, kappa)
heavy: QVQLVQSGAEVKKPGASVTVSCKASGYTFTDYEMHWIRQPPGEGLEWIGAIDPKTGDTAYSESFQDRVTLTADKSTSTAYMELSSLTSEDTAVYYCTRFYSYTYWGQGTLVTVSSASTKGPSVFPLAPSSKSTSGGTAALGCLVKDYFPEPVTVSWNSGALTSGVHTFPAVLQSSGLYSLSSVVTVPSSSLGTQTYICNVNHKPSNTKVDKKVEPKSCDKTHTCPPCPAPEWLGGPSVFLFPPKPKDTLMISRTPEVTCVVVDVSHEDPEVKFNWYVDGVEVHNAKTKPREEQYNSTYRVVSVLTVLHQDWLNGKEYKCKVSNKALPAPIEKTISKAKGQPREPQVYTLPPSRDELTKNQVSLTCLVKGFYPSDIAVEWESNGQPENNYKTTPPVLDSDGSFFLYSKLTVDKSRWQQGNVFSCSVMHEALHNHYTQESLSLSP
light: B1 light
notes: also called Ho Ab L234_20W
B43: GpH7-B3 variant N325_14T/GpL16-k0 (antibody, human IgG1, kappa)
heavy: not shown
light: B1 light
notes: also called Ho Ab N325_14T
B44: GpH7-B3 variant I336_06M/GpL16-k0 (antibody, human IgG1, kappa)
heavy: not shown
light: B1 light
notes: also called Ho Ab I336_06M
B45: GpH7-B3 variant H268_03V/GpL16-k0 (antibody, human IgG1, kappa)
heavy: not shown
light: B1 light
notes: also called Ho Ab H268_03V
B46: GpH7-B3 variant K334_10E/GpL16-k0 (antibody, human IgG1, kappa)
heavy: not shown
light: B1 light
notes: also called Ho Ab K334_10E
B47: GpH7-B3 variant K334_13S/GpL16-k0 (antibody, human IgG1, kappa)
heavy: not shown
light: B1 light
notes: also called Ho Ab K334_13S
B48: GpH7-B3 variant I336_08L/GpL16-k0 (antibody, human IgG1, kappa)
heavy: not shown
light: B1 light
notes: also called Ho Ab I336_08L
B49: GpH7-B3 variant N325_13S/GpL16-k0 (antibody, human IgG1, kappa)
heavy: not shown
light: B1 light
notes: also called Ho Ab N325_13S
B50: GpH7-B3 variant I336_18N/GpL16-k0 (antibody, human IgG1, kappa)
heavy: not shown
light: B1 light
notes: also called Ho Ab I336_18N
B51: GpH7-B3 variant N325_03V/GpL16-k0 (antibody, human IgG1, kappa)
heavy: not shown
light: B1 light
notes: also called Ho Ab N325_03V
B52: GpH7-B3 variant N325_20W/GpL16-k0 (antibody, human IgG1, kappa)
heavy: not shown
light: B1 light
notes: also called Ho Ab N325_20W
B53: GpH7-B3 variant I332_14T/GpL16-k0 (antibody, human IgG1, kappa)
heavy: not shown
light: B1 light
notes: also called Ho Ab I332_14T
B54: GpH7-B3 variant K326_04F/GpL16-k0 (antibody, human IgG1, kappa)
heavy: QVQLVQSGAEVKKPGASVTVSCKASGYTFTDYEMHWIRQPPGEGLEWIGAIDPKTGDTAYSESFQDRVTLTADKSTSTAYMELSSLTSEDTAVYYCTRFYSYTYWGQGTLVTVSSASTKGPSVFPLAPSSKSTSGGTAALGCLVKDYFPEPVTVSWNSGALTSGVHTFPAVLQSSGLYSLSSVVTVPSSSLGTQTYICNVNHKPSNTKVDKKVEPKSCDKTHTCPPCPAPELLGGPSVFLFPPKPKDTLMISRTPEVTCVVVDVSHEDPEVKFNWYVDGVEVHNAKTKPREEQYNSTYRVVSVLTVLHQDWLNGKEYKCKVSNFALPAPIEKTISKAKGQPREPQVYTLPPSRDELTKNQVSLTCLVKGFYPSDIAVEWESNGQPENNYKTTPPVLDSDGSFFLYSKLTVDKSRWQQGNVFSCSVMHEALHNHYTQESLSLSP
light: B1 light
notes: also called Ho Ab K326_04F
B55: GpH7-B3 variant K326_08L/GpL16-k0 (antibody, human IgG1, kappa)
heavy: not shown
light: B1 light
notes: also called Ho Ab K326_08L
B56: GpH7-B3 variant K334_19Q/GpL16-k0 (antibody, human IgG1, kappa)
heavy: not shown
light: B1 light
notes: also called Ho Ab K334_19Q

Target: T1, FcγRIIa R
Assay: SPR Biacore; vs GpH7-B3/GpL16-k0 =100
Description: Analysis of interaction between objective antibody and the FcγR was carried out using Biacore T100 (GE Healthcare). HBS-EP+ (GE Healthcare) was used as the running buffer, and the measurement temperature was set to 25° C. Chips produced by immobilizing the antigen peptide by the amine coupling method to a Series S Sencor Chip CM5 (GE Healthcare), or alternatively, chips produced by allowing preliminarily biotinylated antigen peptides to interact with and immobilize onto a Series S Sensor Chip SA (certified) (GE Healthcare) were used. Antibodies of interest were captured onto an antigen peptide-immobilized chip, and allowed to interact to each FcγR diluted with running buffer. To regenerate and repeatedly use the chip, the antibodies captured on the chip were washed off by reacting 10 mM glycine-HCl, pH 1.5.
The FcγR-binding activity of each antibody was assessed primarily using as an indicator the FcγR-binding activity and dissociation constant for FcγR.

Binder | Ho/Con_2aR
B1 | 122 % of control
B2 | 43.3 % of control
B3 | 68.8 % of control
B4 | 42.8 % of control
B5 | 95.9 % of control
B6 | 39.9 % of control
B7 | 13 % of control
B8 | 49.9 % of control
B9 | 114 % of control
B10 | 105 % of control
B11 | 105 % of control
B12 | 133 % of control
B13 | 110 % of control
B14 | 26.7 % of control
B15 | 108 % of control
B16 | 74.8 % of control
B17 | 77 % of control
B18 | 98.5 % of control
B19 | 134 % of control

Binder | Ho/Con_2aR
B20 | 88.9 % of control
B21 | 113 % of control
B22 | 95.7 % of control
B23 | 110 % of control
B24 | 106 % of control
B25 | 111 % of control
B26 | 93.4 % of control
B27 | 146 % of control
B28 | 95 % of control
B29 | 97 % of control
B30 | 100 % of control
B31 | 102 % of control
B32 | 118 % of control
B33 | 139 % of control
B34 | 96.4 % of control
B35 | 48.1 % of control
B36 | 116 % of control
B37 | 42.6 % of control
B38 | 110 % of control

Binder | Ho/Con_2aR
B39 | 98.9 % of control
B40 | 73 % of control
B41 | 120 % of control
B42 | 53.8 % of control
B43 | 60.2 % of control
B44 | 96.4 % of control
B45 | 105 % of control
B46 | 106 % of control
B47 | 106 % of control
B48 | 105 % of control
B49 | 126 % of control
B50 | 94.5 % of control
B51 | 37.8 % of control
B52 | 56 % of control
B53 | 99.6 % of control
B54 | 133 % of control
B55 | 131 % of control
B56 | 108 % of control
